From article PMC3150276

Biological target: MogR, full-length (transcriptional repressor of flagellar motility genes) (Listeria monocytogenes)
Sequence (G2K449 whole entry): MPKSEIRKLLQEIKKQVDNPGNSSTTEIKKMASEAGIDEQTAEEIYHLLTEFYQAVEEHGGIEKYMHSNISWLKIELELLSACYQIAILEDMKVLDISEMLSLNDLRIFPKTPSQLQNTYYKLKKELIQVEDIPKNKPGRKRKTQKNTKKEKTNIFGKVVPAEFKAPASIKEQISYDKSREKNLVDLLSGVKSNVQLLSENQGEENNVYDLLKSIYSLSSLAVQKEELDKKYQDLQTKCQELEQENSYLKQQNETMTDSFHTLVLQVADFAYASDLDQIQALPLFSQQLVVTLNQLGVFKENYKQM

For “GmaR, full-length (bifunctional flagellar anti-repressor/glycosyltransferase) (natural protein)”, the gel mobility shift at 37°C: amount of purified GmaR-His6 needed to decrease shifted MogR-His6:DNA complexes as at 30°C was > 2 fold.
